Measurements: paper PMC2756588

What was measured:
Experiment in all cases: SPOT array
Cyk3, Q07533 = molecular target: T1, Cyk3, Q07533; conditions: median of control spots 1451
T1 sequence (Q07533 1-83, looked up): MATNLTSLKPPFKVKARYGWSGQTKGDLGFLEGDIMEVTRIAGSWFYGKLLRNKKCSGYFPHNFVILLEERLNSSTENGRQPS

Sho1, P40073 = conditions: median of control spots 1148
Sla1-2, P32790 = molecular target: T2, Sla1-2, P32790; conditions: median of control spots 712
T2 sequence (P32790 60-140, looked up): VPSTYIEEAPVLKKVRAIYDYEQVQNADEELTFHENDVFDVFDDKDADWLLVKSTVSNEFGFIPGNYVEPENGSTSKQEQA

Lsb4, P32793 = molecular target: T3, Lsb4, P32793; conditions: median of control spots 397
T3 sequence (P32793 402-468, looked up): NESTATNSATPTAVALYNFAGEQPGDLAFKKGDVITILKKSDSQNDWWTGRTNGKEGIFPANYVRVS

Lsb1, P53281 = molecular target: T4, Lsb1, P53281; conditions: median of control spots 388
T4 sequence (P53281 45-122, looked up): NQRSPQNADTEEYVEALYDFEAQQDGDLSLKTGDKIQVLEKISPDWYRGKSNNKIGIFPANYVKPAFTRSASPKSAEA

Boi2, P39969 = molecular target: T5, Boi2, P39969; conditions: median of control spots 1161
T5 sequence (P39969 32-116, looked up): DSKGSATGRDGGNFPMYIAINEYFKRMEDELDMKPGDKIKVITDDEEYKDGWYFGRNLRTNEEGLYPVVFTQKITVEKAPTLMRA

Bem1-1, P29366 = conditions: median of control spots 4282
Lsb3, P43603 = molecular target: T6, Lsb3, P43603; conditions: median of control spots 406
T6 sequence (P43603 385-451, looked up): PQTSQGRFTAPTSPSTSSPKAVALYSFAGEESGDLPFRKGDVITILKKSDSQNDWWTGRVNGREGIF

Boi1, P38041 = molecular target: T7, Boi1, P38041; conditions: median of control spots 1162
T7 sequence (P38041 1-86, looked up): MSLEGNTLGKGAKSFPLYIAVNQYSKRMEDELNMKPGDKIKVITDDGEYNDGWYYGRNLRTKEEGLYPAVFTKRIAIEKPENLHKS

Abp1, P15891 = molecular target: T8, Abp1, P15891; conditions: median of control spots 935
T8 sequence (P15891 535-592, looked up): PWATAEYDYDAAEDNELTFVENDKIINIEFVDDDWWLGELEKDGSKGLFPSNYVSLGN

Cdc25, P04821 = molecular target: T9, Cdc25, P04821; conditions: median of control spots 969
T9 sequence (P04821 50-136, looked up): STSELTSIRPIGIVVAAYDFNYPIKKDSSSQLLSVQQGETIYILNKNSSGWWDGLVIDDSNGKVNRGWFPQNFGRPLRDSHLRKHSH

Hse1, P38753 = molecular target: T10, Hse1, P38753; conditions: median of control spots 1727
T10 sequence (P38753 208-285, looked up): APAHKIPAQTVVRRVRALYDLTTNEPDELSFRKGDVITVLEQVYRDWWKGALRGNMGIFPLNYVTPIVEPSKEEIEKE

Nbp2, Q12163 = molecular target: T11, Nbp2, Q12163; conditions: median of control spots 357
T11 sequence (Q12163 103-180, looked up): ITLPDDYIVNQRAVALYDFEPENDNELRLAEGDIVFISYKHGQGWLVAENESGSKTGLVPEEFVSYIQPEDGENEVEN

Rvs167, P39743 = conditions: median of control spots 2707
GST = conditions: median of control spots 978
Bem1-2, P29366 = conditions: median of control spots 4347
Bzz1-1, P38822 = molecular target: T12, Bzz1-1, P38822; conditions: median of control spots 4446
T12 sequence (P38822 478-572, looked up): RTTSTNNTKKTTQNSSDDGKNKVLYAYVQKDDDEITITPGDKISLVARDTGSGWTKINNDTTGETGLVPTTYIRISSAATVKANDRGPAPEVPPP

Myo5, Q04439 = molecular target: T13, Myo5, Q04439; conditions: median of control spots 471
T13 sequence (Q04439 1072-1160, looked up): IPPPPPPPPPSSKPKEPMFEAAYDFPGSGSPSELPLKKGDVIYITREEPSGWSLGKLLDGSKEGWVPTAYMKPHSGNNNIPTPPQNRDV

Bud14, P27637 = molecular target: T14, Bud14, P27637; conditions: median of control spots 956
T14 sequence (P27637 247-328, looked up): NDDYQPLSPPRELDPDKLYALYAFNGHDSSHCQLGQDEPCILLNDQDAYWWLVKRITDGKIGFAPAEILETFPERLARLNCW

Myo3, P36006 = conditions: median of control spots 468
Bzz1-2, P38822 = molecular target: T15, Bzz1-2, P38822; conditions: median of control spots 4538
T15 sequence (P38822 568-633, looked up): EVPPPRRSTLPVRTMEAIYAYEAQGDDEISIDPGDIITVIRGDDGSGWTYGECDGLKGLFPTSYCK

Bbc1, P47068 = molecular target: T16, Bbc1, P47068; conditions: median of control spots 796
T16 sequence (P47068 1-78, looked up): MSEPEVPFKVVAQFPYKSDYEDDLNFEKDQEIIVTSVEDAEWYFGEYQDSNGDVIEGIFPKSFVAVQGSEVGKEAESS

Pex13, P80667 = molecular target: T17, Pex13, P80667; conditions: median of control spots 1341
T17 sequence (P80667 295-386, looked up): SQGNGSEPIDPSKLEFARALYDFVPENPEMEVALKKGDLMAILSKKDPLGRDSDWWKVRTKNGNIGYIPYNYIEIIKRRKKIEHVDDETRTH

Fus1, P11710 = molecular target: T18, Fus1, P11710; conditions: median of control spots 1200
T18 sequence (P11710 432-512, looked up): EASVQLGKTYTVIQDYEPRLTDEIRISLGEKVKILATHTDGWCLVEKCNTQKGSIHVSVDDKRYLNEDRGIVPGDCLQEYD

Sla1-3, P32790 = molecular target: T19, Sla1-3, P32790; conditions: median of control spots 5475
T19 sequence (P32790 344-424, looked up): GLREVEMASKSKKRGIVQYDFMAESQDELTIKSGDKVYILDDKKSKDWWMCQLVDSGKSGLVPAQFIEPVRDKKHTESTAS

Pin3, Q06449 = molecular target: T20, Pin3, Q06449; conditions: median of control spots 2171
T20 sequence (Q06449 53-122, looked up): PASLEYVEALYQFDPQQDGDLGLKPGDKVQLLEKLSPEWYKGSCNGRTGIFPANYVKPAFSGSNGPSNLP

Hof1, Q05080 = molecular target: T21, Hof1, Q05080; conditions: median of control spots 4086
T21 sequence (Q05080 590-669, looked up): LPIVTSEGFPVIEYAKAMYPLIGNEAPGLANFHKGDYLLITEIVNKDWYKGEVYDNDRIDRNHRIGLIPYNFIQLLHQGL

Bem1-1, P29366, sequence (P29366 55-141): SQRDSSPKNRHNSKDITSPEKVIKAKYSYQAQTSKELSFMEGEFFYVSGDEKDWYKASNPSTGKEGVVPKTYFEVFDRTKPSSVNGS
Rvs167, P39743, sequence (P39743 419-482): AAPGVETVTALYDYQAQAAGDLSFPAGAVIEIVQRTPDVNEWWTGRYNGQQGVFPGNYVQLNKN
Sho1, P40073, sequence (P40073 287-367): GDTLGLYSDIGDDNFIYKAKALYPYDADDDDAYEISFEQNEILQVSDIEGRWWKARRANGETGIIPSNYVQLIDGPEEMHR
Bem1-2, P29366, sequence (P29366 139-227): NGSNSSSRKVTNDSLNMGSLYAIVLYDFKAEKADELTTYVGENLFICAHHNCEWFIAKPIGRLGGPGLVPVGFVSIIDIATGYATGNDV

Binder: APPPPPRRATPEKKP
- SPOT intensity (Cyk3, Q07533): 1
- SPOT intensity (Sho1, P40073): 21
- SPOT intensity (Sla1-2, P32790): 0
- SPOT intensity (Lsb4, P32793): 424
- SPOT intensity (Lsb1, P53281): 30
- SPOT intensity (Boi2, P39969): 1
- SPOT intensity (Bem1-1, P29366): 0
- SPOT intensity (Lsb3, P43603): 432
- SPOT intensity (Boi1, P38041): 0
- SPOT intensity (Abp1, P15891): 77
- SPOT intensity (Cdc25, P04821): 3
- SPOT intensity (Hse1, P38753): 0
- SPOT intensity (Nbp2, Q12163): 0
- SPOT intensity (Rvs167, P39743): 525
- SPOT intensity (GST): 1
- SPOT intensity (Bem1-2, P29366): 3
- SPOT intensity (Bzz1-1, P38822): 1
- SPOT intensity (Myo5, Q04439): 14
- SPOT intensity (Bud14, P27637): 0
- SPOT intensity (Myo3, P36006): 92
- SPOT intensity (Bzz1-2, P38822): 0
- SPOT intensity (Bbc1, P47068): 14
- SPOT intensity (Pex13, P80667): 68
- SPOT intensity (Fus1, P11710): 0
- SPOT intensity (Sla1-3, P32790): 0
- SPOT intensity (Pin3, Q06449): 8
- SPOT intensity (Hof1, Q05080): 0

Binder: QQEQNTPPLPPKPKS
- SPOT intensity (Cyk3, Q07533): 0
- SPOT intensity (Sho1, P40073): 14
- SPOT intensity (Sla1-2, P32790): 1
- SPOT intensity (Lsb4, P32793): 776
- SPOT intensity (Lsb1, P53281): 0
- SPOT intensity (Boi2, P39969): 0
- SPOT intensity (Bem1-1, P29366): 1
- SPOT intensity (Lsb3, P43603): 923
- SPOT intensity (Boi1, P38041): 0
- SPOT intensity (Abp1, P15891): 3
- SPOT intensity (Cdc25, P04821): 0
- SPOT intensity (Hse1, P38753): 184
- SPOT intensity (Nbp2, Q12163): 0
- SPOT intensity (Rvs167, P39743): 0
- SPOT intensity (GST): 0
- SPOT intensity (Bem1-2, P29366): 1
- SPOT intensity (Bzz1-1, P38822): 0
- SPOT intensity (Myo5, Q04439): 0
- SPOT intensity (Bud14, P27637): 0
- SPOT intensity (Myo3, P36006): 0
- SPOT intensity (Bzz1-2, P38822): 3
- SPOT intensity (Bbc1, P47068): 0
- SPOT intensity (Pex13, P80667): 79
- SPOT intensity (Fus1, P11710): 0
- SPOT intensity (Sla1-3, P32790): 3
- SPOT intensity (Pin3, Q06449): 0
- SPOT intensity (Hof1, Q05080): 950

Binder: SSAAPPPPPRRATPE
- SPOT intensity (Cyk3, Q07533): 0
- SPOT intensity (Sho1, P40073): 3
- SPOT intensity (Sla1-2, P32790): 0
- SPOT intensity (Lsb4, P32793): 965
- SPOT intensity (Lsb1, P53281): 266
- SPOT intensity (Boi2, P39969): 0
- SPOT intensity (Bem1-1, P29366): 1
- SPOT intensity (Lsb3, P43603): 706
- SPOT intensity (Boi1, P38041): 1
- SPOT intensity (Abp1, P15891): 23
- SPOT intensity (Cdc25, P04821): 2
- SPOT intensity (Hse1, P38753): 0
- SPOT intensity (Nbp2, Q12163): 0
- SPOT intensity (Rvs167, P39743): 1790
- SPOT intensity (GST): 1
- SPOT intensity (Bem1-2, P29366): 1
- SPOT intensity (Bzz1-1, P38822): 0
- SPOT intensity (Myo5, Q04439): 18
- SPOT intensity (Bud14, P27637): 0
- SPOT intensity (Myo3, P36006): 99
- SPOT intensity (Bzz1-2, P38822): 1
- SPOT intensity (Bbc1, P47068): 8
- SPOT intensity (Pex13, P80667): 58
- SPOT intensity (Fus1, P11710): 0
- SPOT intensity (Sla1-3, P32790): 0
- SPOT intensity (Pin3, Q06449): 5
- SPOT intensity (Hof1, Q05080): 1

Binder: EQEEIAPSLPSRNSI
- SPOT intensity (Cyk3, Q07533): 1
- SPOT intensity (Sho1, P40073): 0
- SPOT intensity (Sla1-2, P32790): 0
- SPOT intensity (Lsb4, P32793): 517
- SPOT intensity (Lsb1, P53281): 20
- SPOT intensity (Boi2, P39969): 1
- SPOT intensity (Bem1-1, P29366): 1
- SPOT intensity (Lsb3, P43603): 998
- SPOT intensity (Boi1, P38041): 0
- SPOT intensity (Abp1, P15891): 0
- SPOT intensity (Cdc25, P04821): 1
- SPOT intensity (Hse1, P38753): 0
- SPOT intensity (Nbp2, Q12163): 0
- SPOT intensity (Rvs167, P39743): 31
- SPOT intensity (GST): 2
- SPOT intensity (Bem1-2, P29366): 1
- SPOT intensity (Bzz1-1, P38822): 0
- SPOT intensity (Myo5, Q04439): 0
- SPOT intensity (Bud14, P27637): 0
- SPOT intensity (Myo3, P36006): 0
- SPOT intensity (Bzz1-2, P38822): 1
- SPOT intensity (Bbc1, P47068): 0
- SPOT intensity (Pex13, P80667): 417
- SPOT intensity (Fus1, P11710): 0
- SPOT intensity (Sla1-3, P32790): 0
- SPOT intensity (Pin3, Q06449): 0
- SPOT intensity (Hof1, Q05080): 2
